Assay results published in doi:10.1101/2024.06.20.599911 (bioRxiv, 2024).

Target: T1, GFP-AtCNIH5 (genomic AtCNIH5pro: GFP-AtCNIH5 in cnih5) (Arabidopsis thaliana, UniProt Q9SZ74 1-135)
T1 sequence (looked up): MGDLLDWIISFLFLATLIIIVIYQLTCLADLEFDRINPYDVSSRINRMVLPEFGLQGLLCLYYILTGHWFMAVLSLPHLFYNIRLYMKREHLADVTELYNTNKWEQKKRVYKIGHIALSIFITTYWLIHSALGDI
Assay: co-IP

fold co-immunoprecipitated against the free GFP control: ~40 times
B1: endogenous AtPHF1 (natural protein, UniProt Q8GYE0 1-398, looked up)
chain: MEIEEASRESGHVVCGSWIRRPKKVNWVLIAKASKRRGSSVSSPALLNIFSFDPITASLSSSPLATHTLKDSDGDPVAVSVHPGGDYFVCSTSKGGCKLFELVGGATGITILAKELLPLQNAGLQKCMAFSFDGSKLAVGGVDGCLRIMEWPNLSVILDEPKAHKSIRDMDFSLDSEFLATTSTDGSARIWKAEDGFPLSTLERSGDENIELCRFSKDGTKPFLFCAAQRGDTPMVNVYDISTWKKLGFKKLSRKTASTMAVSLDGKYIALGGKDGDVSVAEVKTMEIYHYSKRLHLGQSIASLEFCPSERVMLTTSSEWGEMVTKLTVPKEWKEWQIYALLFCLFMASVIAAYVFFENSDSFWKLPMGKDQKRPKISLFGGSSSTPSEDHSRWNLDL
